Reference: publication PMC9481563, “Structural insights into the pSer/pThr dependent regulation of the SHP2 tyrosine phosphatase in insulin and CD28 signaling” (Nature Communications, 2022)
Where no end group is shown, it is not given here. [ ]: non-standard residue; d: D form. pY = N[C@@H](Cc1ccc(OP(=O)(O)O)cc1)C(=O)O; pT = C[C@@H](OP(=O)(O)O)[C@H](N)C(=O)O; pS = N[C@@H](COP(=O)(O)O)C(=O)O

B1: p0IRS1, IRS1 peptide with phosphotyrosine only (pY632) (peptide)
peptide: GRKGSGD[pY]MPMSPKS
notes: human IRS1, 2nd YxxMSP motif around Y632, 15 amino acids; also called singly phosphorylated model peptide; pTyr peptide; source: synthetic peptide, bought: GeneScript Inc
B2: ppIRS1, IRS1 peptide dually phosphorylated (pY632 + pS636) (peptide)
peptide: GRKGSGD[pY]MPM[pS]PKS
notes: human IRS1, 2nd YxxMSP motif around Y632, 15 amino acids; also called pY632-pS636 peptide; dually phosphorylated model peptide; source: synthetic peptide, bought: GeneScript Inc
B3: p0CD28, CD28 peptide with phosphotyrosine only (pY191) (peptide)
peptide: RSRLLHSD[pY]MNMTPRR
notes: human CD28 T-cell costimulatory receptor, cytoplasmic YMNMTP motif, 16 amino acids; also called singly Tyr phosphorylated CD28 peptide; source: synthetic peptide, bought: GeneScript Inc
B4: ppCD28, CD28 peptide dually phosphorylated (pY191 + pT195) (peptide)
peptide: RSRLLHSD[pY]MNM[pT]PRR
notes: human CD28 T-cell costimulatory receptor, cytoplasmic YMNMTP motif, 16 amino acids; also called pY191-pT195 peptide; source: synthetic peptide, bought: GeneScript Inc

What follows are binders tested against T1, PIK3R1 (p85) C-terminal SH2 domain (614-724) (human, UniProt P27986 614-724) (assay: fluorescence polarisation; competitive titration: labelled CF-ppIRS1 and protein both fixed (50-80% saturation), unlabelled competitor peptide varied; triplicates; Kd from cubic fit). Conditions: both partners purified.
T1 construct: PIK3R1 regulatory subunit of PI3K (p85), cSH2 domain, cloned from a HEK293T cDNA pool, UniProt P27986, residues 614-724; also called cSH2; PI3KR1 cSH2; source: E. coli BL21 (DE3), purified (Ni-NTA, anion exchange)
T1 sequence (P27986 614-724): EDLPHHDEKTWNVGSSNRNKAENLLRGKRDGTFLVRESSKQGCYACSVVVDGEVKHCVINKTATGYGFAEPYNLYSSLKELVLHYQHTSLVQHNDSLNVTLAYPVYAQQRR

| Binder | binding result |
| --- | --- |
| B1 | binds |
| B2 | binds |
| B3 | binds |
| B4 | binds |

Each binder was assayed against T2, PIK3R1 (p85) N-terminal SH2 domain (321-433) (human, UniProt P27986 321-433) in the same assay as above. Conditions: both partners purified.
T2 construct: PIK3R1 regulatory subunit of PI3K (p85), nSH2 domain, cloned from a HEK293T cDNA pool, UniProt P27986, residues 321-433; also called nSH2; PI3KR1 nSH2; source: E. coli BL21 (DE3), purified (Ni-NTA, anion exchange)
T2 sequence (P27986 321-433): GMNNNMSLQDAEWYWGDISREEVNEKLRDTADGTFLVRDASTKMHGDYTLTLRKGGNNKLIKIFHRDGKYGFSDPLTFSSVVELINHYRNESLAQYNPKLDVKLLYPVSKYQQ

| Binder | binding result |
| --- | --- |
| B1 | binds |
| B2 | binds |
| B3 | binds |
| B4 | binds |

Each binder was assayed against T3, PTPRε first catalytic domain, inactive C335S mutant (107-399), MBP-tagged (human, UniProt P23469 107-399, C335S) in the same assay as above. Conditions: both partners purified.
T3 construct: PTPRε receptor tyrosine phosphatase, first phosphatase domain, cloned from a HEK293T cDNA pool, UniProt P23469, residues 107-399; first cloned into pBH4 (N-terminal His6); also called receptor tyrosine phosphatase PTPRε; source: E. coli BL21 (DE3), purified (Ni-NTA, anion exchange)
T3 sequence (P23469 107-399 C335S): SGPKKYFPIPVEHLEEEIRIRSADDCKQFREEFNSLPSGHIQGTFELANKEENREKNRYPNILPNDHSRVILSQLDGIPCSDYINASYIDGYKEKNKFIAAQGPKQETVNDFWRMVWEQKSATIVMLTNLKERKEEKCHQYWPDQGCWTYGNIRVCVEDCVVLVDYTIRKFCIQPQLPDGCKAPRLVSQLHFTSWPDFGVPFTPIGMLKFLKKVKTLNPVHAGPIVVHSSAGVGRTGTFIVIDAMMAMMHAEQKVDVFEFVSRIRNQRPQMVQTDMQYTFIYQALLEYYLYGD

| Binder | binding result |
| --- | --- |
| B3 | binds |
| B4 | binds |
